Measured values published in US20080167229.
Like-named read-outs stand apart in the source and are kept apart here.

Columns and labels:
[1] = target: Ubiquitin-Vinyl Sulfone (U-202; Boston Biochem)
[2] = target: Flag-HA-tagged UAF1, expressed in and purified from HeLa cells
[3] = target: monoubiquitinated Flag-HA-tagged FANCD2 protein purified from hydroxyurea-treated HeLa cells, Q9BXW9
[4] = target: T1, Ubiquitin-7-amido-4-methylcoumarin (U-550; Boston Biochem)
[5] = target: UAF1 with engineered C-terminal Strep II tag, purified from Sf9 cells
[6] = target: Strep-tagged UAF1-ΔWD2 purified from Sf9 insect cells
[7] = target: T1, Ubiquitin-7-amido-4-methylcoumarin …; assay: Ub-AMC hydrolysis at 20 nM USP1, Lineweaver-Burk plot; standard deviation in brackets
[8] = target: T1, Ubiquitin-7-amido-4-methylcoumarin …; assay: Ub-AMC hydrolysis at 2 nM USP1/UAF1 complex, Lineweaver-Burk plot; standard deviation in brackets

Row | Protein | mobility shift in SDS-PAGE with Ub-VS [1] | in vitro deubiquitination of Ub-FANCD2 [3] | Km [4] | Ub-AMC cleavage, fluorescence against time, 10 nM protein [4] | kcat [4] | also measured
1 | c-Myc-tagged USP1 synthesized in rabbit reticulocyte lysate (protein) MPGVIPSESNGLSRGSPSKKNRLSLKFFQKKETKRALDFTDSQENEEKASEYRASEIDQVVPAAQSSPINCEKRENLLPFVGLNNLGNTCYLNSILQVLYFCPGFKSGVKHLFNIISRKKEALKDEANQKDKGNCKEDSLASYELICSLQSLIISVEQLQASFLLNPEKYTDELATQPRRLLNTLRELNPMYEGYLQHDAQEVLQCILGNIQETCQLLKKEEVKNVAELPTKVEEIPHPKEEMNGINSIEMDSMRHSEDFKEKLPKGNGKRKSDTEFGNMKKKVKLSKEHQSLEENQRQTRSKRKATSDTLESPPKIIPKYISENESPRPSQKKSRVKINWLKSATKQPSILSKFCSLGKITTNQGVKGQSKENECDPEEDLGKCESDNTTNGCGLESPGNTVTPVNVNEVKPINKGEEQIGFELVEKLFQGQLVLRTRCLECESLTERREDFQDISVPVQEDELSKVEESSEISPEPKTEMKTLRWAISQFASVERIVGEDKYFCENCHHYTEAERSLLFDKMPEVITIHLKCFAASGLEFDCYGGGLSKINTPLLTPLKLSLEEWSTKPTNDSYGLFAVVMHSGITISSGHYTASVKVTDLNSLELDKGNFVVDQMCEIGKPEPLNEEEARGVVENYNDEEVSIRVGGNTQPSKVLNKKNVEAIGLLGGQKSKADYELYNKASNPDKVASTAFAENRNSETSDTTGTHESDRNKESSDQTGINISGFENKISYVVQSLKEYEGKWLLFDDSEVKVTEEKDFLNSLSPSTSPTSTPYLLFYKKL | there was a shift of both the full length USP1 and the N-terminal cleavage product in the presence of Ub-VS |  |  |  |  | 
2 | N-terminal cleavage product of c-Myc-tagged USP1 (rabbit reticulocyte lysate) (protein) MPGVIPSESNGLSRGSPSKKNRLSLKFFQKKETKRALDFTDSQENEEKASEYRASEIDQVVPAAQSSPINCEKRENLLPFVGLNNLGNTCYLNSILQVLYFCPGFKSGVKHLFNIISRKKEALKDEANQKDKGNCKEDSLASYELICSLQSLIISVEQLQASFLLNPEKYTDELATQPRRLLNTLRELNPMYEGYLQHDAQEVLQCILGNIQETCQLLKKEEVKNVAELPTKVEEIPHPKEEMNGINSIEMDSMRHSEDFKEKLPKGNGKRKSDTEFGNMKKKVKLSKEHQSLEENQRQTRSKRKATSDTLESPPKIIPKYISENESPRPSQKKSRVKINWLKSATKQPSILSKFCSLGKITTNQGVKGQSKENECDPEEDLGKCESDNTTNGCGLESPGNTVTPVNVNEVKPINKGEEQIGFELVEKLFQGQLVLRTRCLECESLTERREDFQDISVPVQEDELSKVEESSEISPEPKTEMKTLRWAISQFASVERIVGEDKYFCENCHHYTEAERSLLFDKMPEVITIHLKCFAASGLEFDCYGGGLSKINTPLLTPLKLSLEEWSTKPTNDSYGLFAVVMHSGITISSGHYTASVKVTDLNSLELDKGNFVVDQMCEIGKPEPLNEEEARGVVENYNDEEVSIRVGGNTQPSKVLNKKNVEAIGLLGG | there was a shift of both the full length USP1 and the N-terminal cleavage product in the presence of Ub-VS |  |  |  |  | amount of the N-terminal cleavage product of c-Myc-USP1 after cycloheximide in reticulocyte lysate (anti-c-Myc immunoblot) [2]: the e-USP1-N-Term. band (about 97 kDa) stays faint from 0 min to 2h in Control and grows stronger from 0 min to 2h with + UAF1
3 | native USP1 complex purified from HeLa nuclear extract (protein) chain 1: MPGVIPSESNGLSRGSPSKKNRLSLKFFQKKETKRALDFTDSQENEEKASEYRASEIDQVVPAAQSSPINCEKRENLLPFVGLNNLGNTCYLNSILQVLYFCPGFKSGVKHLFNIISRKKEALKDEANQKDKGNCKEDSLASYELICSLQSLIISVEQLQASFLLNPEKYTDELATQPRRLLNTLRELNPMYEGYLQHDAQEVLQCILGNIQETCQLLKKEEVKNVAELPTKVEEIPHPKEEMNGINSIEMDSMRHSEDFKEKLPKGNGKRKSDTEFGNMKKKVKLSKEHQSLEENQRQTRSKRKATSDTLESPPKIIPKYISENESPRPSQKKSRVKINWLKSATKQPSILSKFCSLGKITTNQGVKGQSKENECDPEEDLGKCESDNTTNGCGLESPGNTVTPVNVNEVKPINKGEEQIGFELVEKLFQGQLVLRTRCLECESLTERREDFQDISVPVQEDELSKVEESSEISPEPKTEMKTLRWAISQFASVERIVGEDKYFCENCHHYTEAERSLLFDKMPEVITIHLKCFAASGLEFDCYGGGLSKINTPLLTPLKLSLEEWSTKPTNDSYGLFAVVMHSGITISSGHYTASVKVTDLNSLELDKGNFVVDQMCEIGKPEPLNEEEARGVVENYNDEEVSIRVGGNTQPSKVLNKKNVEAIGLLGGQKSKADYELYNKASNPDKVASTAFAENRNSETSDTTGTHESDRNKESSDQTGINISGFENKISYVVQSLKEYEGKWLLFDDSEVKVTEEKDFLNSLSPSTSPTSTPYLLFYKKL chain 2: not shown | a mobility shift of both full length and the N-terminal cleavage product of USP1 was observed, demonstrating enzymatic activity of both polypeptides | the USP1 complex could support this reaction |  |  |  | 
4 | USP1 with N-terminal His tag, amino acids 670-71 changed from GG to AA (non-cleavable), purified from Sf9 cells (protein) MPGVIPSESNGLSRGSPSKKNRLSLKFFQKKETKRALDFTDSQENEEKASEYRASEIDQVVPAAQSSPINCEKRENLLPFVGLNNLGNTCYLNSILQVLYFCPGFKSGVKHLFNIISRKKEALKDEANQKDKGNCKEDSLASYELICSLQSLIISVEQLQASFLLNPEKYTDELATQPRRLLNTLRELNPMYEGYLQHDAQEVLQCILGNIQETCQLLKKEEVKNVAELPTKVEEIPHPKEEMNGINSIEMDSMRHSEDFKEKLPKGNGKRKSDTEFGNMKKKVKLSKEHQSLEENQRQTRSKRKATSDTLESPPKIIPKYISENESPRPSQKKSRVKINWLKSATKQPSILSKFCSLGKITTNQGVKGQSKENECDPEEDLGKCESDNTTNGCGLESPGNTVTPVNVNEVKPINKGEEQIGFELVEKLFQGQLVLRTRCLECESLTERREDFQDISVPVQEDELSKVEESSEISPEPKTEMKTLRWAISQFASVERIVGEDKYFCENCHHYTEAERSLLFDKMPEVITIHLKCFAASGLEFDCYGGGLSKINTPLLTPLKLSLEEWSTKPTNDSYGLFAVVMHSGITISSGHYTASVKVTDLNSLELDKGNFVVDQMCEIGKPEPLNEEEARGVVENYNDEEVSIRVGGNTQPSKVLNKKNVEAIGLLAAQKSKADYELYNKASNPDKVASTAFAENRNSETSDTTGTHESDRNKESSDQTGINISGFENKISYVVQSLKEYEGKWLLFDDSEVKVTEEKDFLNSLSPSTSPTSTPYLLFYKKL |  | USP1 protein alone was unable to deubiquitinate Ub-FANCD2 | decreasing the Km from 1.4 µM to 0.7 µM | rises slowly and almost linearly from about 130 at 0 min to about 400 at 40 min | 0.014 s⁻¹ | Ub-AMC cleavage, fluorescence against time, 10 nM USP1 alone [4]: slow rise from about 120 at 0 min to about 300 at about 23 min, on one line with USP1 + UAF1-ΔWD2; rate of Ub-AMC conversion V (nM/s) against [S] (µM), 20 nM USP1 [4]: V rises from about 0.09 nM/s at 0.6 µM to about 0.2 nM/s at 3 µM; the fitted curve still rises, no plateau; Ub-AMC cleavage by 2 nM USP1, fluorescence against time, 2 nM UAF1 or buffer added during the run [5]: both traces run together from about 130 to about 165 until about 12 min; then + UAF1 steps to about 245 and rises at once in a straight line beyond 500 at about 23 min, while Control steps to about 185 and reaches only about 215 at 25 min; Ub-AMC cleavage by 10 nM USP1, fluorescence against time, 10 nM UAF1 added during the run [5]: the grey trace USP1 + UAF1 runs with the USP1 traces from about 120 to about 200 until about 12 min, then steps to about 310 and rises in a straight line to about 1200 at about 23 min; kcat on Ub-AMC, UAF1/USP1 complex against USP1 alone [5]: augmenting the kcat value 18-fold; kcat/Km on Ub-AMC, UAF1/USP1 complex against USP1 alone [5]: the kcat/Km is 35-fold higher for the UAF1/USP1 complex compared to USP1 alone; substrate turnover of Ubiquitin-AMC after adding UAF1 in an equimolar amount to USP1 [5]: Addition of UAF1 resulted in an instantaneous and robust increase of substrate turnover; Ub-AMC cleavage by 10 nM USP1, fluorescence against time, 10 nM UAF1-ΔWD2 added during the run [6]: no stimulation: the two dark traces (USP1 and USP1 + UAF1-ΔWD2) lie on one another, step to about 240 at about 12 min and keep their slope, reaching about 300 at about 23 min; Km [7]: 1.4 µM
5 | USP1/UAF1 complex (heterodimer) co-expressed in and purified from Sf9 cells, Example 1 (protein) chain 1: MPGVIPSESNGLSRGSPSKKNRLSLKFFQKKETKRALDFTDSQENEEKASEYRASEIDQVVPAAQSSPINCEKRENLLPFVGLNNLGNTCYLNSILQVLYFCPGFKSGVKHLFNIISRKKEALKDEANQKDKGNCKEDSLASYELICSLQSLIISVEQLQASFLLNPEKYTDELATQPRRLLNTLRELNPMYEGYLQHDAQEVLQCILGNIQETCQLLKKEEVKNVAELPTKVEEIPHPKEEMNGINSIEMDSMRHSEDFKEKLPKGNGKRKSDTEFGNMKKKVKLSKEHQSLEENQRQTRSKRKATSDTLESPPKIIPKYISENESPRPSQKKSRVKINWLKSATKQPSILSKFCSLGKITTNQGVKGQSKENECDPEEDLGKCESDNTTNGCGLESPGNTVTPVNVNEVKPINKGEEQIGFELVEKLFQGQLVLRTRCLECESLTERREDFQDISVPVQEDELSKVEESSEISPEPKTEMKTLRWAISQFASVERIVGEDKYFCENCHHYTEAERSLLFDKMPEVITIHLKCFAASGLEFDCYGGGLSKINTPLLTPLKLSLEEWSTKPTNDSYGLFAVVMHSGITISSGHYTASVKVTDLNSLELDKGNFVVDQMCEIGKPEPLNEEEARGVVENYNDEEVSIRVGGNTQPSKVLNKKNVEAIGLLAAQKSKADYELYNKASNPDKVASTAFAENRNSETSDTTGTHESDRNKESSDQTGINISGFENKISYVVQSLKEYEGKWLLFDDSEVKVTEEKDFLNSLSPSTSPTSTPYLLFYKKL chain 2: not shown |  | the UAF11USP1 complex readily deubiquitinated the substrate; about half of the substrate was deubiquitinated | decreasing the Km from 1.4 µM to 0.7 µM | rises steeply from about 350 at 0 min to a plateau of about 2000 reached at about 15 min | 0.26 s⁻¹ | Km [8]: 0.7 µM; rate of Ub-AMC conversion V (nM/s) against [S] (µM), 2 nM USP1/UAF1 complex [4]: V rises from about 0.19 nM/s at about 0.4 µM to about 0.43 nM/s at 3 µM; the fitted curve flattens but still rises, no plateau
